# B1: recombinant CK2β (natural protein)
# chain: not shown
# notes: protein kinase CK2 regulatory subunit beta; also called protein kinase CK2 regulatory β subunit
# Molecular target: T1, CK2α of MCF-10A cells (human (endogenous in MCF-10A), UniProt P68400 1-391)
# T1 construct: protein kinase CK2 catalytic subunit alpha, endogenous; also called free CK2α subunit; source: endogenous, MCF-10A cells and cell extracts (WT or CK2β-depleted)
# Assay: thermal shift assay in cell lysates; CK2β-depleted MCF-10A cell lysates (50 mM Tris-HCl pH 7.5, 150 mM NaCl, 2% glycerol) with 50 µM TAT or TAT-Pc 13, or PBS or CK2β, 30 min at room temperature; aliquots heated 3 min; CK2 activity of the supernatants
# Details: one partner purified
# T1 sequence (P68400 whole entry): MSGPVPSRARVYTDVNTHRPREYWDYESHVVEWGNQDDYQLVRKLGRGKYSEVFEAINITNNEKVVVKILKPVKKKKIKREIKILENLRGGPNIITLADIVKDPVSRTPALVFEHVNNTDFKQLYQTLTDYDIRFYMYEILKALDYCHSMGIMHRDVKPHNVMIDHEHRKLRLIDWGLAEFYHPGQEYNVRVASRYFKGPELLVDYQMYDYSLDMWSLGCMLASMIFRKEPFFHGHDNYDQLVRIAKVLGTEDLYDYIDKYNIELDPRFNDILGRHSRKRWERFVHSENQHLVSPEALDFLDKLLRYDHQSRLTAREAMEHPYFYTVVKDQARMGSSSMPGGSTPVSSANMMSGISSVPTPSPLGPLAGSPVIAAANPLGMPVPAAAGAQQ
protein,measurement,value
B1,shift of the melting curve,3 °C
